Measured values from US20200317768A1 (published 2020).
Numbering of substitutions follows the chain as printed.

T1: cynomolgus monkey FcγRIIa1 extracellular domain, C-terminal His-tag (cynomolgus monkey)
T1 construct: also called cyno FcγRIIa1; cynoFcgRIIa1; not shown: His-tag added to C-terminus
T1 chain: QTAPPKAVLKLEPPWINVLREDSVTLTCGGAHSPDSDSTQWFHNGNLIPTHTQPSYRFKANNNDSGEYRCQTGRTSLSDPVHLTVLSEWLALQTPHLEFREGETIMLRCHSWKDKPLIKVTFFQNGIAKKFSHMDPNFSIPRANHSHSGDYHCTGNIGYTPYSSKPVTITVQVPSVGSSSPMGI

T2: cynomolgus monkey FcγRIIa2 extracellular domain, C-terminal His-tag (cynomolgus monkey)
T2 construct: also called cyno FcγRIIa2; cynoFcgRIIa2; not shown: His-tag added to C-terminus
T2 chain: T1 chain with P95T, T121A, I127K, A128S, K130N, D135N, R142Q

T3: cynomolgus monkey FcγRIIa3 extracellular domain, C-terminal His-tag (cynomolgus monkey)
T3 construct: also called cyno FcγRIIa3; cynoFcgRIIa3; not shown: His-tag added to C-terminus
T3 chain: T1 chain with P95T, T121A, A128S, H133P, D135N

T4: cynomolgus monkey FcγRIIb extracellular domain, C-terminal His-tag (cynomolgus monkey)
T4 construct: also called cyno FcγRIIb; cynoFcγRIIb; not shown: His-tag added to C-terminus
T4 chain: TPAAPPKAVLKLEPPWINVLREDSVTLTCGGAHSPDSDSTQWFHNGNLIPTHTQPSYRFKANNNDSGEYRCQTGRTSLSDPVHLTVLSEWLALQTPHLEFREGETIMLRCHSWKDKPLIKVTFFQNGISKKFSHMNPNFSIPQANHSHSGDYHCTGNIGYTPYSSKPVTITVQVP

T5: human FcγRIIaH extracellular domain, C-terminal His-tag (human, UniProt P12318 34-217)
T5 construct: also called human FcγRIIa (type H); FcgRIIaH; not shown: His-tag added to C-terminus
T5 sequence: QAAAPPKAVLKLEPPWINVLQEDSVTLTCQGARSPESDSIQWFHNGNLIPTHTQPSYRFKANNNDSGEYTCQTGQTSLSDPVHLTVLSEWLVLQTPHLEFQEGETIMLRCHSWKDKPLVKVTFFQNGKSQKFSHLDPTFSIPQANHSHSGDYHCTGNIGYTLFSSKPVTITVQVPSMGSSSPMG

T6: human FcγRIIaR extracellular domain, C-terminal His-tag (human, UniProt P12318 34-217)
T6 construct: also called human FcγRIIa (type R); FcgRIIaR; not shown: His-tag added to C-terminus
T6 chain: T5 sequence with H134R

T7: human FcγRIIb extracellular domain, C-terminal His-tag (human, UniProt P31994 43-217)
T7 construct: also called FcgRIIb (human); not shown: His-tag added to C-terminus
T7 sequence: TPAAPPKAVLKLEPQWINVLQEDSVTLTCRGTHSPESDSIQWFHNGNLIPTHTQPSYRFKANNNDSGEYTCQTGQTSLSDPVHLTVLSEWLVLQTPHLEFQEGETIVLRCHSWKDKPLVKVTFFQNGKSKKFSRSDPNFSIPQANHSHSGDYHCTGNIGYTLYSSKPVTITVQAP

B1: M103205H795-MY292/M103202L889-SK1 (antibody, human IgG1, kappa)
heavy: QVTLKESGPVLVKPTETLTLTCTVSGIDLSHDDISWVRQAPGKGLEWVGIISYAGSTYYASWAKGRLTISKDTSKNQVVLTMTNMDPVDTATYYCARGVPAYSHGGDLWGQGTLVTVSSASTKGPSVFPLAPSSKSTSGGTAALGCLVKDYFPEPVTVSWNSGALTSGVHTFPAVLQSSGLYSLSSVVTVPSSSLGTQTYICNVNHKPSNTKVDKKVEPKSCDKTHTCPPCPAPELLGYPSVFLFPPKPKDTLMISRTPEVTCVVVDVSDEDPEVKFNWYVDGVEVHNAKTKPREELYNSTYRVVSVLTVLHQDWLNGKEYKCKVSNKALPKPIEKTISKAKGQPREPQVYTLPPSREEMTKNQVSLTCLVKGFYPSDIAVEWESNGQPENNYKTTPMVLDSDGSFFLYSKLTVDKSRWQQGNVFSCSVMHEALHNHYTQKSLSLSP
light: DIVMTQSPATLSLSPGERATLSCTSSQSVYHANWLSWFQQKPGQPPKLLIYWASTLAYGVPSRFSGSGSGTDFTLTISSLQPEDAATYYCAGGYGGGRYAFGQGTKVEIKRTVAAPSVFIFPPSDEQLKSGTASVVCLLNNFYPREAKVQWKVDNALQSGNSQESVTEQDSKDSTYSLSSTLTLSKADYEKHKVYACEVTHQGLSSPVTKSFNRGEC
B2: M103205H795-MY293/M103202L889-SK1 (antibody, human IgG1, kappa)
heavy: B1 heavy with D270E, M398K
light: B1 light
B3: M103205H795-MY308/M103202L889-SK1 (antibody, human IgG1, kappa)
heavy: B1 heavy with G238T, Y239G, D270E, L297Q, M398P
light: B1 light
B4: M103205H795-MY309/M103202L889-SK1 (antibody, human IgG1, kappa)
heavy: B1 heavy with G238T, Y239G, D270E, L297Q
light: B1 light
B5: M103205H795-MY310/M103202L889-SK1 (antibody, human IgG1, kappa)
heavy: B1 heavy with G238T, Y239G, D270E, L297Q, K328T, M398P
light: B1 light
B6: M103205H795-MY311/M103202L889-SK1 (antibody, human IgG1, kappa)
heavy: B1 heavy with G238T, Y239G, D270E, M398P
light: B1 light
B7: M103205H795-MY312/M103202L889-SK1 (antibody, human IgG1, kappa)
heavy: B1 heavy with G238T, Y239G, D270E, L297Q, K328T
light: B1 light
B8: M103205H795-MY318/M103202L889-SK1 (antibody, human IgG1, kappa)
heavy: B1 heavy with G238L, Y239G, D270E, L297Q, K328T
light: B1 light
B9: M103205H795-MY321/M103202L889-SK1 (antibody, human IgG1, kappa)
heavy: B1 heavy with G238H, Y239G, L297Q
light: B1 light

Legend:
Assay in all cases: SPR (Biacore), antibody captured, FcgR analyte, 25 C
[1] = biological target: T1, cynomolgus monkey FcγRIIa1 …
[2] = biological target: T2, cynomolgus monkey FcγRIIa2 …
[3] = biological target: T3, cynomolgus monkey FcγRIIa3 …
[4] = biological target: T4, cynomolgus monkey FcγRIIb extracellular …
[5] = biological target: T5, human FcγRIIaH extracellular domain, …
[6] = biological target: T6, human FcγRIIaR extracellular domain, …
[7] = biological target: T7, human FcγRIIb extracellular domain, …
[8] = biological target: T8, human FcγRIIIaV extracellular domain, C-terminal His-tag (human, UniProt P08637 17-208)
T8 construct: also called FcgRIIIaV; not shown: His-tag added to C-terminus
T8 sequence (P08637 17-208 F176V): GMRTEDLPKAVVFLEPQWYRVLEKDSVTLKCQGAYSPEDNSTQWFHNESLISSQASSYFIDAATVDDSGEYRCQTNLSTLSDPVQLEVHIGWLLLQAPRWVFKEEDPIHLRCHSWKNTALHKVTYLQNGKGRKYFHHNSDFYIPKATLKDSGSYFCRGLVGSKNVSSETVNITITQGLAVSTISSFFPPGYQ

| Binder | Kd [1] | Kd [2] | Kd [3] | Kd [4] | Kd [5] | Kd [6] | Kd [7] | Kd [8] |
| --- | --- | --- | --- | --- | --- | --- | --- | --- |
| B1 | 1500 nM | 2500 nM | 2200 nM | 430 nM | 950 nM | 76 nM | 140 nM | 28000 nM |
| B2 | 2300 nM | 3300 nM | 3900 nM | 860 nM | 1300 nM | 73 nM | 150 nM | 39000 nM |
| B3 | 3900 nM | 4600 nM | 1100 nM | 1300 nM | 450 nM | 360 nM | 4100 nM | 8300 nM |
| B4 | 3500 nM | 2500 nM | 7000 nM | 710 nM | 140 nM | 260 nM | 1600 nM | 4300 nM |
| B5 | 3000 nM | 2900 nM | 7200 nM | 950 nM | 400 nM | 550 nM | 2900 nM | 6900 nM |
| B6 | 2300 nM | 3400 nM | 8600 nM | 780 nM | 200 nM | 450 nM | 2100 nM | 7100 nM |
| B7 | 1400 nM | 1500 nM | 3700 nM | 400 nM | 110 nM | 170 nM | 1100 nM | 2800 nM |
| B8 | 7900 nM | 7700 nM | 32000 nM | 2200 nM | 1100 nM | 1300 nM | 4800 nM | 8700 nM |
| B9 | 2300 nM | 2200 nM | 2900 nM | 540 nM | 71 nM | 350 nM | 2600 nM | 3400 nM |
